From US20210163536A1

How the values were obtained:
[1] = target: human melanocortin-1 receptor (human) (UniProt Q01726); test: competition with [125I]-NDP-alpha-MSH, CHO-K1 cell membranes
[2] = target: human melanocortin-1 receptor (human) (UniProt Q01726); test: cell-based or functional assay
[3] = target: human melanocortin-3 receptor (human) (UniProt P41968); test: cell-based or functional assay
[4] = target: human melanocortin-4 receptor (human) (UniProt P32245); test: cell-based or functional assay
[5] = target: human melanocortin-5 receptor (human) (UniProt P33032); test: cell-based or functional assay
[6] = target: human melanocortin-3 receptor (human) (UniProt P41968); test: competition with [125I]-NDP-alpha-MSH, CHO-K1 cell membranes
[7] = target: human melanocortin-4 receptor (human) (UniProt P32245); test: as above
[8] = target: human melanocortin-5 receptor (human) (UniProt P33032); test: as above

Chain of human melanocortin-5 receptor (human) (P33032 whole entry): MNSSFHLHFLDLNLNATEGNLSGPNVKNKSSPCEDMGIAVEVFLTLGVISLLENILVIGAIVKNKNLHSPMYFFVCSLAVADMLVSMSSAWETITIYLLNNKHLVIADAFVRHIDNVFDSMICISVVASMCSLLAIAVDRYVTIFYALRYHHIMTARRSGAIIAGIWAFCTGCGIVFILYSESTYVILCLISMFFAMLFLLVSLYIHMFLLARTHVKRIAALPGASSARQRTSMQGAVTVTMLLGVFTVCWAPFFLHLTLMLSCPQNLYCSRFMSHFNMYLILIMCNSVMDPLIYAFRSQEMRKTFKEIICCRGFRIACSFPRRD
Chain of human melanocortin-3 receptor (human) (P41968 whole entry): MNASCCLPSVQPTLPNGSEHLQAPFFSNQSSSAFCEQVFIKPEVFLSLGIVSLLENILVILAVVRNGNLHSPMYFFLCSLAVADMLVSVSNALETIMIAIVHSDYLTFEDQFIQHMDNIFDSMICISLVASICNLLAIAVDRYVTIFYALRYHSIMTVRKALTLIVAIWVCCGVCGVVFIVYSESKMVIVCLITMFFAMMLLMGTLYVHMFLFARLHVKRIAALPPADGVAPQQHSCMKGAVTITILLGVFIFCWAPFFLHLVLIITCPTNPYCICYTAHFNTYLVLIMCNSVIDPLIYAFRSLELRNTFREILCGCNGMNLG
Chain of human melanocortin-1 receptor (human) (Q01726 whole entry): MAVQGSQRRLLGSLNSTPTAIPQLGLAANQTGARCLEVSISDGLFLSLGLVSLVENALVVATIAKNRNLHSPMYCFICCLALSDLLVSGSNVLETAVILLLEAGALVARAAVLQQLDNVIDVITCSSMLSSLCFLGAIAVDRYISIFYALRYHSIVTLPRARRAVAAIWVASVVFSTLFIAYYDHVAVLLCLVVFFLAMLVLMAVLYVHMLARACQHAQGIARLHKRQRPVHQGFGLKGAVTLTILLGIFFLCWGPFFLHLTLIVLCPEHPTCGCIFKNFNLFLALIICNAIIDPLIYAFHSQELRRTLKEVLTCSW
Chain of human melanocortin-4 receptor (human) (P32245 whole entry): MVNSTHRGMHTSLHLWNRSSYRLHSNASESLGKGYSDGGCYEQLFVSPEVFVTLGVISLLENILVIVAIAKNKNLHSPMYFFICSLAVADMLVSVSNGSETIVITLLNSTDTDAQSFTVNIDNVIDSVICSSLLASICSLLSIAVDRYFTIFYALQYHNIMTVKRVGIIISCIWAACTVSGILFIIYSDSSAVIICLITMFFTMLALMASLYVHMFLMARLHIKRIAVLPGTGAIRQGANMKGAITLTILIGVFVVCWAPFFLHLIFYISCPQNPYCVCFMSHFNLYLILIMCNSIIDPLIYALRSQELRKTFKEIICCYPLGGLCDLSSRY

cyclo[Hydantoin(C(O)-(Asp-His))-D-2-Nal-Arg-Trp-Lys]-NH2 (peptide)
Ki [1]: 200 nM

Hydantoin(C(O)-(Nle-Gly))-cyclo(Cys-D-Ala-His-D-Phe-Arg-Trp-Pen)-NH2 (peptide; unit assumed)
EC50, intracellular cyclic AMP (cAMP) levels [2]: 17 nM | EC50, intracellular cyclic AMP (cAMP) levels [3]: 21.5 nM | EC50, intracellular cyclic AMP (cAMP) levels [4]: 0.584 nM | EC50, intracellular cyclic AMP (cAMP) levels [5]: 352 nM

cyclo[Hydantoin(C(O)-(Asp-D-Ala))-His-D-Phe-Arg-Trp-Orn]-NH2 (peptide)
EC50, intracellular cyclic AMP (cAMP) levels [3]: 88.6 nM | Ki [1]: 37.7 nM | Ki [6]: 576 nM | Ki [7]: 7.81 nM | Ki [8]: 6400 nM

cyclo[Hydantoin(C(O)-(Asp-D-Ala))-His-D-Phe-Arg-Trp-Dap]-NH2 (peptide; unit assumed)
EC50, intracellular cyclic AMP (cAMP) levels [3]: 49.3 nM | EC50, intracellular cyclic AMP (cAMP) levels [4]: 2.12 nM

cyclo[Hydantoin(C(O)-(Asp-Apc))-D-2-Nal-Arg-Trp-Lys]-NH2 (peptide)
Ki [1]: 1280 nM | Ki [6]: 2760 nM | Ki [7]: 266 nM

cyclo[Hydantoin(C(O)-(Glu-D-Ala))-His-D-Phe-Arg-Trp-Orn]-NH2 (peptide; unit assumed)
EC50, intracellular cyclic AMP (cAMP) levels [3]: 39.2 nM | EC50, intracellular cyclic AMP (cAMP) levels [4]: 4.94 nM

cyclo[Hydantoin(C(O)-(Glu-D-Ala))-His-D-Phe-Arg-Trp-Dap]-NH2 (peptide; unit assumed)
EC50, intracellular cyclic AMP (cAMP) levels [2]: 56.7 nM | EC50, intracellular cyclic AMP (cAMP) levels [3]: 18.2 nM | EC50, intracellular cyclic AMP (cAMP) levels [4]: 0.182 nM | EC50, intracellular cyclic AMP (cAMP) levels [5]: > 10000 nM

Hydantoin(C(O)-(D-Arg-Gly))-cyclo(Cys-Glu-His-D-Phe-Arg-Trp-Cys)-NH2 (peptide)
Ki [1]: 9.49 nM | Ki [6]: 124 nM | Ki [7]: 2.95 nM | Ki [8]: 2260 nM

Hydantoin(C(O)-(Gly-D-Arg))-cyclo(Cys-Glu-His-D-Phe-Arg-Trp-Cys)-NH2 (peptide; unit assumed)
EC50, intracellular cyclic AMP (cAMP) levels [2]: 12.9 nM | EC50, intracellular cyclic AMP (cAMP) levels [3]: 10.3 nM | EC50, intracellular cyclic AMP (cAMP) levels [4]: 0.125 nM | EC50, intracellular cyclic AMP (cAMP) levels [5]: 7440 nM

cyclo[Hydantoin(C(O)-(Glu-D-Ala))-His-D-Phe-Arg-Trp-Dab]-NH2 (peptide)
Ki [1]: 28 nM | Ki [6]: 90.5 nM | Ki [7]: 12.7 nM | Ki [8]: 877 nM

cyclo[Hydantoin(C(O)-(Asp-Aic))-D-2-Nal-Arg-Trp-Lys]-NH2 (peptide)
Ki [1]: 9030 nM | Ki [6]: 2630 nM | Ki [7]: 35.8 nM | Ki [8]: 1160 nM

cyclo[Hydantoin(C(O)-(Asp-A6c))-D-2-Nal-Arg-Trp-Lys]-NH2 (peptide)
Ki [1]: 2170 nM | Ki [6]: 1480 nM | Ki [7]: 16.5 nM | Ki [8]: 451 nM

Hydantoin(C(O)-(Gly-D-Arg))-cyclo(Cys-Glu-His-D-Phe-Arg-Trp-Cys)-NH2 (peptide)
Ki [1]: 4.3 nM | Ki [6]: 78 nM | Ki [7]: 1.77 nM | Ki [8]: 4540 nM

cyclo[Hydantoin(C(O)-(Asp-D-Ala))-His-D-Phe-Arg-Trp-Dap]-NH2 (peptide)
Ki [1]: 66.6 nM | Ki [6]: 1820 nM | Ki [7]: 19.9 nM

cyclo[Hydantoin(C(O)-(Asp-A5c))-D-2-Nal-Arg-Trp-Lys]-NH2 (peptide)
Ki [1]: 9940 nM | Ki [6]: 2390 nM

Hydantoin(C(O)-(Nle-Gly))-cyclo(Cys-D-Ala-His-D-Phe-Arg-Trp-Pen)-NH2 (peptide)
Ki [1]: 12.9 nM | Ki [7]: 3.53 nM | Ki [8]: 27.1 nM

Hydantoin(C(O)-(D-Arg-Gly))-cyclo(Cys-Glu-His-D-Phe-Arg-Trp-Cys)-NH2 (peptide; unit assumed)
EC50, intracellular cyclic AMP (cAMP) levels [2]: 18 nM | EC50, intracellular cyclic AMP (cAMP) levels [3]: 17.1 nM | EC50, intracellular cyclic AMP (cAMP) levels [4]: 0.16 nM | EC50, intracellular cyclic AMP (cAMP) levels [5]: 2710 nM

cyclo[Hydantoin(C(O)-(Asp-D-Ala))-His-D-Phe-Arg-Trp-Orn]-NH2 (peptide; unit assumed)
EC50, intracellular cyclic AMP (cAMP) levels [2]: 56.6 nM | EC50, intracellular cyclic AMP (cAMP) levels [4]: 4.5 nM | EC50, intracellular cyclic AMP (cAMP) levels [5]: 9300 nM

cyclo[Hydantoin(C(O)-(Glu-D-Ala))-His-D-Phe-Arg-Trp-Orn]-NH2 (peptide)
Ki [1]: 60.4 nM | Ki [6]: 2840 nM | Ki [7]: 52.4 nM

cyclo[Hydantoin(C(O)-(Glu-D-Ala))-His-D-Phe-Arg-Trp-Dap]-NH2 (peptide)
Ki [1]: 16.4 nM | Ki [6]: 863 nM | Ki [7]: 4.97 nM

cyclo[Hydantoin(C(O)-(Asp-A3c))-D-2-Nal-Arg-Trp-Lys]-NH2 (peptide)
Ki [1]: 7570 nM | Ki [6]: 1920 nM | Ki [7]: 420 nM | Ki [8]: 2880 nM
